In publication PMC2646761:

Substrate: CC#CC(=O)C(=O)O
Test: purified protein
Format: biochemical, Corynebacterium glutamicum
Conditions: hydration of 2-oxo-3-pentynoate; typical value of the enzyme preparations used

B1: Cg10062 (Corynebacterium glutamicum ATCC 13032) (protein)
chain: PTYTCWSQRIRISREAKQRIAEAITDAHHELAHAPKYLVQVIFNEVEPDSYFIAAQSASENHIWVQATIRSGRTEKQKEELLLRLTQEIALILGIPNEEVWVYITEIPGSNMTEYGRLLMEPGEEEKWFNSLPEGLRERLTELEGSSE
Q: How did the Km turn out when B1 was run?
A: Its Km is 4.2 ± 0.3 mM.

Q: And the kcat?
A: The kcat was 0.16 ± 0.01 s⁻¹.
